Assay results from patent US20240301362A1.
pKd: −log10 of the molar value.

Target: CD46 (UniProt P15529)
Assay: Kd determination, method not stated (column head 'Kd (Oleks)')

UniProt P15529, sequence (P15529 35-343): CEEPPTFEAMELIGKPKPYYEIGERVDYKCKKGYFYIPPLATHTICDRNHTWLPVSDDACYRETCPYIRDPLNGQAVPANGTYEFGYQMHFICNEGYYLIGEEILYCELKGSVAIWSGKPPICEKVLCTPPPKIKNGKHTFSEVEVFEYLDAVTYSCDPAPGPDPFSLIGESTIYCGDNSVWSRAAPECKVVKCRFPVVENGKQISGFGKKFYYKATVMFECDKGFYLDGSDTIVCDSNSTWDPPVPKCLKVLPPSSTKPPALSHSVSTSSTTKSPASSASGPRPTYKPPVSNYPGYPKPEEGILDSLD

Row | Substance | pKd
1 | Ad11 knob (from UniProt P35774 123-325) | 7.95
2 | Mutated Ad35 Knob A8: Ile192Val Ile256Val (from UniProt Q92854) | 7.86
3 | wtAd35(207Asp) knob | 7.82
